Experimental findings from PMC11321386 (Blood advances, 2024) are described below.

This experiment deals with GPVI-Fc dimer (UniProt Q9HCN6). Put plainly: ELISA.

B1: nanobody 2 (Nb2) (VHH)
VHH: QVQLQESGGGLVQPGGSLRLSCAAAGFTFDYYAIAWFRQAPGKEREGVSCISSSDGTTYYADSVKGRFTISKDNAKNTMYLQMNSLKPEDTAVYYCATSPLYSTNDRCISEDYDYWGQGTQVTVSS
Regarding B1, the binding result is given as “binds”.
